Measured values: the supplement of paper PMC9170038

How the values were obtained:
MS2 coat protein [1] = experiment: apparent KD of MS2 coat protein, switch ON state; designed switch direction (-1 OFF switch, 1 ON switch): -1; higher = weaker reporter binding; conditions: FMN input: 0 or 200 uM; Eterna round: R93 (includes R88 designs)
Procedure, shortened: (§1)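 Illumina sequencing clusters were used for on-chip transcription of designed RNA switches. Titration with SNAP-549-labelled MS2 coat protein followed, in twofold steps from 0.7 or 1.5 nM to 3 µM in 100 mM Tris-HCl pH 7.5, 80 mM KCl, 4 mM MgCl2, without or with constant ligand. Apparent KD is each design's median of fits to normalised cluster binding curves.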

MS2 coat protein [2] = experiment: apparent KD of MS2 coat protein, switch OFF state (with FMN for OFF switches, without FMN for ON switches); designed switch direction (-1 OFF switch, 1 ON switch): -1; higher = weaker reporter binding; conditions: FMN input: 0 or 200 uM; Eterna round: R93 (includes R88 designs)
Procedure, shortened: as §1

Sequence | apparent KD of MS2 coat protein (MS2 coat protein [1]) [nM] | apparent KD of MS2 coat protein (MS2 coat protein [2]) [nM]
AGCGAGUAAGGAUAUCGGAAAGGACACGAAAGUGACAAAGACGAGAAGGUACAUGAGGAUCACCCAUGUAAAAA [milkweed 25] | 26.8 | 17.8
AGUUGGCGAGGAUAUACAUGAGGAUCACCCAUGUGAGAGUAAAAAGUGAGAAAGAGAAGUAGAAGGCGCUAACA [Ruby 53] | 37.4 | 167
AACAGUACAGGAUAUACAUGAGGAUCACCCAUGUGAAAAUUAAGUGGAAAACCACAAAGUAGAAGGGUACUGAA [Mat - Exclusion 3 - Eli mod - D58] | 21.4 | 61.7
AAGAACGGAGGAUAUACUAAAGAAAUGAAAAGAAAUAAAGAACAUGAGGAUCACCCAUGUAGAAGGCCGAAGAA [Sehebre] | 17 | 23.7
AAAAAAGGAGGAUAUACGAACAUGUCGAAAGACGUGAAGGGACAUGAGGAUCACCCAUGUAGAAGGCUUAAAAA [Mat - Exclusion 2 - JL mod - D69] | 37 | 23.9
AGUAGAUCAGGAUAUACAUAAAUGAUAAUUAUGUAACUUUUACAUGAGGAUCACCCAUGUAGAAGGGAUCUACA [Ex2 Design 130: Not so Super Stable 18] | 14.8 | 15.8
AAAAACAGAGGAUAUACAAAAUUAUGACGAAAGUCAUAAAAACAUGAGGAUCACCCAUGUAGAAGGCUGGAAAA [Mat - Mod of Meechl] | 28.5 | 22.7
UCCGGACAUGAGGAUCACCCAUGUGAGGAUAUAUAAAGUGGGACUAGAAACAGUCCCAAUAGAAGGCACAUGAC [Esarbiorar] | 22 | 17.6
AAAAGGGCAGGAUAUGCGUACUCACGGGAAAACUGAAUGGUACAUGAGGAUCACCCAUGUAGAAGGGCUAAAAA [Dora Explored 19 - Jieux - Exclusion 2] | 54.6 | 37.8
GAAAAGUGAGGAUAUUCGGAUAGGAAAACGAAAACCUAUCCGAAGAAGGCACAUGAGGAUCACCCAUGUGGAAG [Mat - Exaclusion 4 - Eli mod - D46] | 26.1 | 30.7
AAAAAAUGAGGAUAUACAUGAGGAUCACCCAUGUAAAAGGUCAGGGUGGCGGAGGACGGUAGAAGGCAUAAAAA [Excls3-X] | 21.6 | 18.2
AAAAUGUUAGGAUAUGUGAAGGCGUCUGAUAGACGAGGCCUGCAGAAGGAACAUGAGGAUCACCCAUGUAAAAA [Mod 3 of Nando's Round 1 Power Srip] | 34 | 25.6
UAAAGACAUGAGGAUCACCCAUGUGAGGAUAUAGGUGUAUGCAAAAAAAAGCAUACACCUAGAAGGCACAGAAA [JR_Exc001_Sub303] | 44 | 76.3
AAUUCACAUGAGGAUCACCCAUGUAAGGAUAUCGAAAAAAAACUAAACAAAAAACAAACGAGAAGGUACAAAAA [Exclusion 1 design 5] | 25.5 | 31.6
AAGAAGUGAGGAUAUCGAAGACAAAAAAAAAAAAAGUCGAACGAGAAGGCACAUGAGGAUCACCCAUGUAAGAA [shorter stack] | 37.7 | 40.3
AAGAAGCGAGGAUAUACAAAAUAAAAGAAAAGAAAGAAAGAACAUGAGGAUCACCCAUGUAGAAGGCGCAAGAA [Semenkare Nebnuni] | 34.9 | 28.5
AAAAAGUGAGGAUAUACGCGAACAAAAAAAAAAAAGAAAGCGUAGAAGGCACAUGAGGAUCACCCAUGUCCAAA [Alfred 64% 4] | 28 | 39
AAAAAGUGAGGAUAUACAUGAGGAUCACCCAUGUGAUAAAAAAAAAGGGUGGAAGAAAGUAGAAGGCACCAAAA [Ex 3 May 49] | 108 | 77.5
AAAAACUCAGGAUAUAUUAUGGGACAAUGAAGGAAGAUAAAACAUGAGGAUCACCCAUGUAGAAGGGAGAAAAA [JR_Exclusion2_Sub2] | 57.7 | 62.8
GAAAAGUGAGGAUAUGCGAAGGCGUCUGAUAGACGAGGCUAGCAGAAGGCACAUGAGGAUCACCCAUGUGGGAA [Mat - Exclusion 4 - Eli mod - D91] | 71.6 | 133
AAAAAGUGAGGAUAUGCAGUGGCCUGUAGACGCAAGCACUUGUAGAAGGCACAUGAGGAUCACCCAUGUUUAAA [EX4 Malc#30] | 30.9 | 28
AGUAACCAAGGAUAUACAAAACCUGUGAUCGAAUGGAUUUUACAUGAGGAUCACCCAUGUAGAAGGUGGAAAGG [Xeedce] | 22.7 | 35
